Test: soluble on expression in E. coli; label from the status in PepcDB or PDB records

Question: Which “soluble on expression in E. coli” value does the source give for “MSQSLFSLAFGVGTQNRQEAWLEVFYALPLLKPSSEIVAAVAPILGYAAGNQALTFTSQQAYQLADALKGIDAAQSALLSRLAESQKPLVATLLAEDAAPSSTAEAYLKLHLLSHRLVKPHAVNLSGIFPLLPNVAWTNIGAVDLAELAELQLEARLKGKLLEVFSVDKFPKMTDYVVPAGVRIADTARVRLGAYIGEGTTVMHEGFVNFNAGTEGPGMIEGRVSAGVFVGKGSDLGGGCSTMGTLSGGGNIVISVGEGCLIGANAGIGIPLGDRNIVEAGLYITAGTKVALLDEQNALVKVVKARDLAGQPDLLFRRNSQNGAVECK” here?
Answer: not soluble

Question: Which “soluble on expression in E. coli” value does the source give for “MGSDKIHHHHHHMSHTITVIGLGAGDLEQLPLGVYRLILNQDHLYVRTKDHPVIEELIGEGHSFTFFDSIYEQHETFEAVYDAIVAELLEAAKSKEILYAVPGHPLVAERTVQLLLEAEREGRVTVKILGGQSFLDPMFSALKIDPVEGCQVLDGTMLSRDEVHVTQHIVICQVYDQMIASHVKLTLMELLPDDYEVTVATAVGTKNEKLETVPLYELDRVTTISNLTAVYVPPVEDEVILYQDFRTLRQIIATLRGPDGCPWDKKQTHQSLKKYLLEEAYEVLEAIDEENEDHLVEELGDLLLQVLLHAQIGEDDGWFQIEDVIRSISEKMIRRHPHVFGERQVEDAEDVVETWDEIKKAEKGEDQASTSILGKIPKGLPSLMLAFELQKKAAKVGFDWAEVEPMWAKLDEEMHEFKEEIQAGHSQEMAKEFGDVLFVLVNIGRFYNIYAEEALHRTNEKFKRRFQSIEQAITAKGDTLEESSLEEMDVLWNQAKESESQGE” here?
Answer: not soluble

Question: Which “soluble on expression in E. coli” value does the source give for “SLEKLEFEDEAVEDSESGVYMRFMRSHKCYDIVPTSSKLVVFDTTLQVKKAFFALVANGVRAAPLWESKKQSFVGMLTITDFINILHRYYKSPMVQIYELEEHKIETWRELYLQETFKPLVNISPDASLFDAVYSLIKNKIHRLPVIDPISGNALYILTHKRILKFLQLFMSDMPKPAFMKQNLDELGIGTYHNIAFIHPDTPIIKALNIFVERRISALPVVDESGKVVDIYSKFDVINLAAEKTYNNLDITVTQALQHRSQYFEGVVKCNKLEILETIVDRIVRAEVHRLVVVNEADSIVGIISLSDILQALILTPAGAKQKETETE” here?
Answer: soluble

Question: Which “soluble on expression in E. coli” value does the source give for “PVNGALDQYSARAANILAGNLDNHPLLEITALDFRMKANSDVLIAVTGAPLTLTVGGRPCSQWEPVSVRAGESVSIRGIHRGLRAYLAIHGSIEAGTLLGSAAPDTVVGFGLQLQEGTTLLSRRSVSPVRQPYFDLPLFRLGLERPSMGSDLSVDVTDGPDVAEFGESGELLFTSEYVVSGRSNHIGLRLGGELPERTSSDEVLSRGVPVGAVEVPSREELLVLHRGRGVTAGYPVLAVVTSTGLDVLAQARPGDKVRFRKTT” here?
Answer: not soluble

Question: For “MTRPKLELSDDEWRQKLTPQEFHVLRRAGTERPFTGEYTDTTTAGIYQCRACGAELFRSTEKFESHCGWPSFFDPKSSDAVTLRPDHSLGMTRTEVLCANCDSHLGHVFAGEGYPTPTDKRYCINSISLRLVPGSV”, which “soluble on expression in E. coli” value is on record?
Answer: soluble

Question: With “MKTQHVVVVGAGMGGLAAAIDLASRGLRVTVLERSPSPGGKMREIAVGGARLDAGPTVFTMRWVFEELFADAGASLGESLRLRAAEVLARHTWGDGAPFDLFADAARSTEAVGELAGAAEAKRFVAFCARARGIWQALEGPFIRGQRPSPGELVRRSGLSGLSGLARISPFTLLWKALGEHFHDPRLRQLFGRYATYCGSSPFLAPATLMLVAHVEQQGVWMVDGGMHQIARAMADLATAKGATFRYSTTAESVLVENGKVGGLILQGGERLAADIVLINGDAAALAARCFGPQVAAAVPPVPPTARSLSAVTWGLLAEAEGFPLLRHSVFFGNDYPGEFRDIFTHGRLPSSPTVYVCAQDRGDKAPTVGPSGPRPERLLVLVNAPARGDLSFPDAMELDTCTARTFAFLERCGLTLRRTPEATRVTTPADFNSLFPATGGALYGRASHGWSATFDRPGAKTAMPGLYLAGGSVHPGPGVPMAALSGRLAAQAVLADLTSRGRLEHHHHHH” as the sequence, how does the “soluble on expression in E. coli” value read?
Answer: not soluble

Question: Which “soluble on expression in E. coli” value does the source give for “MVARSEEIVIVEEDTTAKCLMLLSRVGECGGGCGGDERVFRCKTCLKEFSSFQALGGHRASHKKLINSDNPSLLGSLSNKKTKTSHPCPICGVKFPMGQALGGHMRRHRNEKVSGSLVTRSFLPETTTVTALKKFSSGKRVACLDLDLDSMESLVNWKLELGRTISWS” here?
Answer: not soluble

Question: For “MGSDKIHHHHHHMNFEKIEQAYDLLLENVQTIQNQLGTNIYDAMIEQNAAYVANQHETDLVVNNNQTLKQLDLTKEEWRRAYQFLLIKANQTEPMQYNHQFTPDSIGFILSFLVDQLVPTQKVTVLEIGSGTGNLAQTILNASQKDLDYLGIEVDDLLIDLSASIADVMQADISFAQGDAVRPQILKESQVILGDLPIGYYPDDQIASRYQVASPNEHTYAHHLLMEQSLKYLEKDGFAILLAPNDLLTSPQSDLLKGWLQEQANIVAMIALPPNLFGKAAMAKSIFVLQKKAARSLTPFVYPLQSLQEPEAIQKFM”, which “soluble on expression in E. coli” value is on record?
Answer: not soluble

Question: For “GPGSMETFRERTLANRYQPRQHLPPEFPGVLKEYAREVLREQPEDILQWSANYFKRLAREMDAKPAGEHRMTAPALPHLESRPNTREEEEEEYGERLQQYIDMFVEHDSENNGVLPVKAIKEALLKSYGLTLPQALYVLTATQLVEKEPVNYAEFACESFPALRFVWSTEHNFQVSNREDTTVHGLSRIDVQQEFLKLLRFADRSDTSLLSIDQYMDVLRCAPYHLTTRDLRILRVEAELNERHEVNYEEELLHIFDRLLLAEQFAQLDSDD”, which “soluble on expression in E. coli” value is on record?
Answer: soluble

Question: Which “soluble on expression in E. coli” value does the source give for “MGSDKIHHHHHHMILSHFSTKVVTFFGSRFKAVRGVDLKRYRKELKLKQQELASKLGIERSLISKIESGKRVISKELEQKIINVLNLDGGHASVEAKIDFLRIRFKTLDVRTVIEKLLHMDMNWFTHESRGFYHYTETFSYSSIRIFRNPENVNMGIMLDLSGEGCRQLEEIFEEDNNRSWTEFFRSLYDDDIFGQGILVDTKITRIDIALDELIVKGQENFDLYVLKEKMEQGLVDTTFKNFDFSGGFVYENKKMVNKGLSLYFGSRQSPLYFNFYQKDYELARKESMSVEEAREKHEIKNRYEIRLSDEKAFLFVEYFLSSGESLDWLVKEIINQSLTVYDIEDDMKVYCKSWHDVVDKLEGLKLSVQGEKPSIEKTLRWLSNYLAPSLKMIKEIDNLLGTNELMERIDLAELKEKHEEIIEMVSVDAKDLLFTNRDNKSVRSYMEREFELEEMYPF” here?
Answer: not soluble

Question: For “MSHHRSAFFISDRTGITAESLGHTLLTQFDALDFQRETVPFVDTVEKARALAERISEIAERDHLRPLVFTSIVNPEVREALRLNNVVLIDFFESFIGHLEIELGQKATLTVGKAHGMVNEEKYDHRIEAVNFSLNHDDGVKLKDLHEADVILVGVSRSGKTPTCLYLALQYGIRAANYPLTPEDLGSPTLPKMLLPFKDKMFGLTIDPNRLHHIRSERRPDSKYASMDNCRREVNEAESMFRHHGVPFISTTHKSIEEIASTIMHKAALGRKFLEHHHHHH”, which “soluble on expression in E. coli” value is on record?
Answer: soluble

Question: Which “soluble on expression in E. coli” value does the source give for “MGSDKIHHHHHHMKIVYFVDGLNRGGVESVVCHLSSSFAKLRNKIYIICLHKDMNDLHLEIPEYISVFYLPFESNRNHHVNYIRYLPNLVDLLKKIKPDIVHAHNSSFSYFFLSIGILLSRTVPVNIRSIHFSGFFLEKRTIEDKIRFIFDWCACRLLKTIIISVGPTVSRVVKRLYTSNQHLTIVNGIDTKEKFCKRNLTKSCMGISEDKYVAVYVARICEGKNHDTLIKAWEIVTQYHPSALLLFIGDGPLKEQYQSVVHEKSLDDKITFTGSIPNIVEYLSIADVGVFPSESEGLPLVLMEMMAVELPVVASKIPSCCDLIEENVNGILYETYDYKDLANKILSVLCDNELKKKLGEQAKLLVCNHYSIENMINRHNILYQKLLLKQNFTDAYN” here?
Answer: not soluble

Question: For “MLRGIVVVDFSHYLPGPFASWRLAQLGAEVIKIEPPSGDRLRPFAEGRLFAAYNAGKKSIGLDLKTDAGREQARRLAARADVVIESFRPGVMARLGLGYDDMCRMNEQIIYCSISGFGQQSGRSLLGSHDLNYMALSGLLAQLADERGRPVHPKITLADFIGGMAAAERILAALFARERTGKGAHLDVSLVDGLAAMMAGHFAIEHGGGPKTGLSELSGEVVCYQLYETKDGRYMSLAALEPHFWRRFCEAVGHPEWTEAQWAPARSGEAVYDELAALFREKTLDEWSAFAEAVDVCLAPVLETGEAKALFADSRLRHLVRLQPGGVWTAAHGPDGQWGGGEPPKVNEHAHLVKGEE”, which “soluble on expression in E. coli” value is on record?
Answer: not soluble

Question: With “MGSDKIHHHHHHMKGKHKIVVKNNRLHYEFEIKRNITIIKGDSATGKTTLINMIRQFANLGNASGIEIECDAPCTVLEGNLWQMLLKNLSGNIIFIDEENQFIRQQEFAELVKASDNYFVIITRENLYNLPYSVEEIYGLYSSGKYQNTKQIYQEMYHIYPLNQDLSCKPDKIIVEDTNSGYEYFKAISKEKNIVCESAGGKTKIFAMLEQLKAETESICVIADGAAIGPEMDALYKMSVEKGNIKLYLPESFEWIILSSELLEDKEIKDIIDKPENYIESQEYFSWERFFTKLLVDKTAGTYLKYQKGKLNPTYLHEKNKNIILKNIKNSIDF” as the sequence, how does the “soluble on expression in E. coli” value read?
Answer: not soluble

Question: For “AHHHHHHGSKAFISIDLEGLPYIVSREHLFVKGALYNEARKIATKIAKIAAEKLHEEGFEEIVIADSHGPMVNIIPEEMPSYVSIVRGFPRPLSMVAFGKGSDIAIFLGYHAKAGTSFATFDHTYSGATIDKIIISGIEVSEFLLNSMVLGEWGVPIGLVAGDEALKEDLKYVPWAEFIPLKKASGRYSALSPSMEAIEKELKAGIKRAVEKLNNKELRAFKIETPVDVEIRFLNSAYAEVADLLPGVERIDGKTIRFTANTVEDAYKIMEVLTLAAAGVSYIVSR”, which “soluble on expression in E. coli” value is on record?
Answer: not soluble

Question: Which “soluble on expression in E. coli” value does the source give for “MSVLGFDIGNLNCYIGVARQGGIEVITNDYSLHATPACVSFGPKDRSMGVAARQAVTTNIKNTVINFKHLIGRKFSDPVAQRFIPFIPCKVVKLPNDDIGVQVSYLGEPHTFTPEQVLAALLTKLRTIVESQLSDVKKVSDCVLAVPSYFTDVQRRAVLSAIQYAGLNSLRIVNETTAIALAYGIYKQDLPEEDAKSRNVVFLDIGHSSTQASLVAFNRGKLQMVNTSYDLESGGIWFDALIREHFRKEFKTKYGIDAATSPRPWLRLLDECERVKKQMSANQTPIPLNIECFMEDKDVTGKMQRQEFEDLAAPIFNRIKQVLINLFADGVSIKPEEIDEIEIVGGSSRIPMIREIVKDLFGKEPKTTMNQDEAVARGAAMQCAILSPTFRVREFAIKDTQPYRIRLSWNSTGENGGENDVFSPRDEVPFSKLVSLLRSGPFNVEAHYAQPNVVPHNQVHIGSWKVNGARPGADGGNQKVKVKVRVNPDGIFTIASATMYEPRIVEEVPAEAMEVDGDAKTEAPAEPLEPVKKTKLVPVDLEVIESIPVSYDVQKFHNLELQMQESDAREKAKADAKNSLEEYVYEMRDKVSDQYAEFITPAAADEFRSVLTSTEDWLYDEGEDAERDVYEKRLSELKAVGTPVVERYRESETRKPAFDSFDQSIMRVRKAYEDYANGGPTYAHLDSKEMEKVINAIEDKKKWLDEARHKQETRSKTDAPVVFTEEILQNKNVFENVVNPILNKKKPAAPAPPKKEEPQPAAGDQPQSQPGEMDVD” here?
Answer: not soluble

Question: With “MGSDKIHHHHHHMPKNRDAARASLENLYRIFTVPEAPDSTLGAIDQAIAGDVAGFLQTHIVAIERPLEEIEADFSSFSIPEEPTYVSEYTEFVKENLVAHSVHTASPAFVGHMTSALPYFMLPLARLMTALNQNVVKVETSKAFTPMERQVLAMLHHLVYGRNDDFYPQWIHNSQHALGAFCSGGTLANVTALWVARNRLFAPDGEFRGIAQEGLARALKHRGADGIAVLVSERGHYSLGKAADLLGIGRDDLIKIKTDANNRIDLKALREECRRLQDRNTLPLALVGIAGTTETGNVDPLEAMADLAQELGCHFHVDAAWGGPTLFSDRHRHLLRGIERADSVTIDGHKQLYVPMGAGMVVFKDPTALSAIEHHANYILRHGSKDLGSHTLEGSRPGKAMLVHAGFSIIGRKGYELLIDMGIERARTFADMIQRHPDFELISEPELNILTYRYCPPAIQQALTDATAQQRAAINGLLDQVCQLLQKYQREAGKTFVSRTRLHVARHDMELTVLRVVLANPLTTDEILEAVLAEQCEIVRLPEIQALLRQAEELCPGLAKAV” as the sequence, how does the “soluble on expression in E. coli” value read?
Answer: not soluble

— the DeepSol protein solubility set
